Laboratory results as given in patent US20170313750A1 (Novo Nordisk, published 2017).
Numbered stars: 1 amine (or outer) side, 2 acyl side, 3 side chain; on linkers, the order of the positions; unused ones are H or OH. Side chains are listed from the residue outwards. * marks the point of attachment. C18 diacid = O=C(O)CCCCCCCCCCCCCCCCC(=O)*; γGlu = O=C(O)[C@H](CCC(=O)[*:2])N[*:1]; Isovaleryl = CC(C)CC(=O)*; AEEA = NCCOCCOCC(=O)O

Legend:
[1] = target: human Y4 receptor (P50391, NPY4R_HUMAN, Uniprot) (human) (UniProt P50391); test: ratio of SPA values, Y2 as reference
human Y4 receptor (P50391, NPY4R_HUMAN, Uniprot) (human), sequence (P50391 whole entry): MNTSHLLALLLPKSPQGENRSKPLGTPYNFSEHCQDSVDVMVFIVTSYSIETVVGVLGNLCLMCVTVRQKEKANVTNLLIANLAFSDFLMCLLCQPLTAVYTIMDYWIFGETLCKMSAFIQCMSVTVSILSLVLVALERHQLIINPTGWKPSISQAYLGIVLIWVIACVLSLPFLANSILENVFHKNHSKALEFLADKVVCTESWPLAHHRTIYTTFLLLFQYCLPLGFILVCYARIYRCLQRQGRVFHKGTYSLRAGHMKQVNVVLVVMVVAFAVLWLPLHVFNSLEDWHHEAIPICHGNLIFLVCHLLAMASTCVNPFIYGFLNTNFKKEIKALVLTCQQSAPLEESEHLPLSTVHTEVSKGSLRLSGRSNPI

[2] = target: T1, human Y1 receptor (P25929, NPY1R_HUMAN, Uniprot) (human, UniProt P25929 1-384); test: SPA vs [125I]-PYY(1-36)
T1 construct: whole, on cells; Assayed as membrane preparations of the expressing cells; also called NPY-Y1 receptor
T1 sequence (looked up): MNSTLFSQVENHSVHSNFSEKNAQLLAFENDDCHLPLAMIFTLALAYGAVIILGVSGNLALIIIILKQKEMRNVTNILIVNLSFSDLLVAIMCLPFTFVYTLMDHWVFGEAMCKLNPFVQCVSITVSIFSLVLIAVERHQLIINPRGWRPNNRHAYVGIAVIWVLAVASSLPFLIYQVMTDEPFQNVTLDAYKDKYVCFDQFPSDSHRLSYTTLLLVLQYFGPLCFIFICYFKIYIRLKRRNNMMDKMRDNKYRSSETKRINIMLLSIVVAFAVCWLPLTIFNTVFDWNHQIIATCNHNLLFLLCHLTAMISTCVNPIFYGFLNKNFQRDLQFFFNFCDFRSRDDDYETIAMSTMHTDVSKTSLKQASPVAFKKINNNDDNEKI
Method: (§1) Human Y receptor SPA binding assay were performed in white 96-well plates in a total volume of 200 μl per well.
(§2) Plates were sealed and incubated at +25° C. for 2 hours in a plate shaker set at 400 rpm and thereafter centrifuged at 1500 rpm for 10 minutes prior to reading of luminescence on a microplate scintillation and luminescence counter.

[3] = target: T2, human Y5 receptor (Q15761, NPY5R_HUMAN, Uniprot) (human, UniProt Q15761 1-445); test: ratio of SPA values, Y2 as reference
T2 construct: whole, on cells; Assayed as membrane preparations of the expressing cells
T2 sequence (looked up): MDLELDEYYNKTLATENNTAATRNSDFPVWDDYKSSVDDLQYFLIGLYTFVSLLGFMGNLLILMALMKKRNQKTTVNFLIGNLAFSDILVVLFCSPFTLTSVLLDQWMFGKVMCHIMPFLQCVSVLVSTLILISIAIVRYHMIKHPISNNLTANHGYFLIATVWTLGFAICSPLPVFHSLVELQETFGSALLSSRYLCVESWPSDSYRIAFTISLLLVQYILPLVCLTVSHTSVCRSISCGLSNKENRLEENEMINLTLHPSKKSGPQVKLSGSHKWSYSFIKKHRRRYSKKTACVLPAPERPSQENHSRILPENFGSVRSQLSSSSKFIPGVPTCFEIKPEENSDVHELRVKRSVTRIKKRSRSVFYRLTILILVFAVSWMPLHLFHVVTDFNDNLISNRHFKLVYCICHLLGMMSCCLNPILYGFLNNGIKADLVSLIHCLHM
Method: as §1, §2

[4] = target: T3, human Y4 receptor (P50391, NPY4R_HUMAN, Uniprot) (human, UniProt P50391 1-375); test: ratio of SPA values, Y2 as reference
T3 construct: whole, on cells; Assayed as membrane preparations of the expressing cells
T3 sequence (P50391 whole entry): as the sequence (P50391 whole entry) above
Method: as §1, §2

[5] = target: T2, human Y5 receptor (Q15761, NPY5R_HUMAN, …); test: SPA vs [125I]-PYY(1-36)
Method: as §1, §2

[6] = target: T4, human Y2 receptor (P49146, NPY2R_HUMAN, Uniprot) (human, UniProt P49146 1-381); test: SPA vs [125I]-PYY(1-36)
T4 construct: whole, on cells; also called human NPY Y2 receptor
T4 sequence (looked up): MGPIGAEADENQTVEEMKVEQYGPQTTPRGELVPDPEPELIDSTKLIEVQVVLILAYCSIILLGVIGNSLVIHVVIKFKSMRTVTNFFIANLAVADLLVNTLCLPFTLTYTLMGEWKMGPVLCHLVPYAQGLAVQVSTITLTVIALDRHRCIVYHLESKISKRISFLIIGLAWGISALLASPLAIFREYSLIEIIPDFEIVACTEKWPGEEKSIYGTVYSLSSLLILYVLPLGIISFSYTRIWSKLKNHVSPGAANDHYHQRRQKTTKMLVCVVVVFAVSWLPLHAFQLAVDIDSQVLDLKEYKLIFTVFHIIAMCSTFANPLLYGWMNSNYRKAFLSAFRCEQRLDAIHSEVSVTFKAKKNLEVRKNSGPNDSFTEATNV
Method: as §1, §2

[7] = target: T4, human Y2 receptor (P49146, NPY2R_HUMAN, …); test: cell-based or functional assay
[8] = target: T3, human Y4 receptor (P50391, NPY4R_HUMAN, …); test: SPA vs [125I]-PP
Method: as §1, §2

N{alpha-4}-(3-Methylbutanoyl)-N{Epsilon-7}-[2-[2-[2-[[2-[2-[2-[[2-[2-[2-[[2-[2-[2-[[(4S)-4-carboxy-4-(17-carboxyheptadecanoylamino)butanoyl]amino]-ethoxy]ethoxy]acetyl]amino]ethoxy]ethoxy]acetyl]amino]ethoxy]ethoxy]acetyl]amino]ethoxy]ethoxy]acetyl]-[Arg4,Lys7,Pro9,Gln18,Tyr28,Trp30,Leu31]-PYY(4-36) (peptide)
Ratio of Y4/Y2 SPA binding values [1]: > 18300

B1: N{alpha-4}-(3-Methylbutanoyl)-N{Epsilon-7}-[2-[2-[2-[[2-[2-[2-[[(4S)-4-carboxy-4-(17-carboxyheptadecanoylamino)butanoyl]amino]ethoxy]ethoxy]acetyl]amino]-ethoxy … (peptide)
peptide: RPEKPTEDASPEELQRYYASLRHYYNWLTRQRY
modifications: N-terminal alpha-amino (position 4): 3-methylbutanoyl; Lys7 (hPYY(1-36) numbering) epsilon-amino: [2-[2-[2-[[2-[2-[2-[[(4S)-4-carboxy-4-(17-carboxyheptadecanoylamino)butanoyl]amino]ethoxy]ethoxy]acetyl]amino]ethoxy]ethoxy]acetyl]; C-terminal amide
notes: also called Compound 14; 14
Ki [2]: 8820 nM

B2: N{alpha-4}-(3-Methylbutanoyl)-N{Epsilon-10}-[2-[2-[2-[[2-[2-[2-[[(4S)-4-carboxy-4-(17-carboxyheptadecanoylamino)butanoyl]amino]ethoxy]ethoxy]acetyl]-amino]ethox … (peptide)
peptide: Isovaleryl-RPEAPGK([AEEA-AEEA-γGlu-C18 diacid])DASPEELQRYYESLRHYYNWLTRQRY-NH2
SMILES: CC(C)CC(=O)N[C@@H](CCCNC(=N)N)C(=O)N1CCC[C@H]1C(=O)N[C@@H](CCC(=O)O)C(=O)N[C@@H](C)C(=O)N1CCC[C@H]1C(=O)NCC(=O)N[C@@H](CCCCNC(=O)COCCOCCNC(=O)COCCOCCNC(=O)CC[C@H](NC(=O)CCCCCCCCCCCCCCCCC(=O)O)C(=O)O)C(=O)N[C@@H](CC(=O)O)C(=O)N[C@@H](C)C(=O)N[C@@H](CO)C(=O)N1CCC[C@H]1C(=O)N[C@@H](CCC(=O)O)C(=O)N[C@@H](CCC(=O)O)C(=O)N[C@@H](CC(C)C)C(=O)N[C@@H](CCC(N)=O)C(=O)N[C@@H](CCCNC(=N)N)C(=O)N[C@@H](Cc1ccc(O)cc1)C(=O)N[C@@H](Cc1ccc(O)cc1)C(=O)N[C@@H](CCC(=O)O)C(=O)N[C@@H](CO)C(=O)N[C@@H](CC(C)C)C(=O)N[C@@H](CCCNC(=N)N)C(=O)N[C@@H](Cc1c[nH]cn1)C(=O)N[C@@H](Cc1ccc(O)cc1)C(=O)N[C@@H](Cc1ccc(O)cc1)C(=O)N[C@@H](CC(N)=O)C(=O)N[C@@H](Cc1c[nH]c2ccccc12)C(=O)N[C@@H](CC(C)C)C(=O)N[C@H](C(=O)N[C@@H](CCCNC(=N)N)C(=O)N[C@@H](CCC(N)=O)C(=O)N[C@@H](CCCNC(=N)N)C(=O)N[C@@H](Cc1ccc(O)cc1)C(N)=O)[C@@H](C)O
notes: also called Compound 51; 51
Ratio of Y5/Y2 EC50 values [3]: 50
Ratio of Y4/Y2 EC50 values [4]: > 4350
Ki [5]: 116 nM
Ki [6]: 2.3 nM
Ki [2]: 2400 nM
Y2 EC50, Actone functional potency assay [7]: 0.99 nM

B3: N{alpha-4}-(3-Methylbutanoyl)-N{Epsilon-10}-[(4S)-4-carboxy-4-[[2-[2-[2-[[(4S)-4-carboxy-4-(17-carboxyheptadecanoylamino)butanoyl]amino]ethoxy]ethoxy]-acetyl]am … (peptide)
peptide: Isovaleryl-RPEAPPK([γGlu-AEEA-γGlu-C18 diacid])DASPEELQRYYESLRHYYNWLTRQRY-NH2
notes: also called Compound 54; 54
Ki [8]: 5910 nM
Ki [5]: 254 nM
Ki [6]: 3.1 nM
Ki [2]: 2420 nM
Y2 EC50, Actone functional potency assay [7]: 1.6 nM

B4: N{alpha-4}-(3-Methylbutanoyl)-N{Epsilon-10}-[(4S)-4-carboxy-4-[[2-[2-[2-[[(4S)-4-carboxy-4-(17-carboxyheptadecanoylamino)butanoyl]amino]ethoxy]ethoxy]-acetyl]am … (peptide)
peptide: Isovaleryl-RPEAPPK([γGlu-AEEA-γGlu-C18 diacid])DASPEELQRYYASLRHYYNWLTRQRY-NH2
SMILES: CC(C)CC(=O)N[C@@H](CCCNC(=N)N)C(=O)N1CCC[C@H]1C(=O)N[C@@H](CCC(=O)O)C(=O)N[C@@H](C)C(=O)N1CCC[C@H]1C(=O)N1CCC[C@H]1C(=O)N[C@@H](CCCCNC(=O)CC[C@H](NC(=O)COCCOCCNC(=O)CC[C@H](NC(=O)CCCCCCCCCCCCCCCCC(=O)O)C(=O)O)C(=O)O)C(=O)N[C@@H](CC(=O)O)C(=O)N[C@@H](C)C(=O)N[C@@H](CO)C(=O)N1CCC[C@H]1C(=O)N[C@@H](CCC(=O)O)C(=O)N[C@@H](CCC(=O)O)C(=O)N[C@@H](CC(C)C)C(=O)N[C@@H](CCC(N)=O)C(=O)N[C@@H](CCCNC(=N)N)C(=O)N[C@@H](Cc1ccc(O)cc1)C(=O)N[C@@H](Cc1ccc(O)cc1)C(=O)N[C@@H](C)C(=O)N[C@@H](CO)C(=O)N[C@@H](CC(C)C)C(=O)N[C@@H](CCCNC(=N)N)C(=O)N[C@@H](Cc1c[nH]cn1)C(=O)N[C@@H](Cc1ccc(O)cc1)C(=O)N[C@@H](Cc1ccc(O)cc1)C(=O)N[C@@H](CC(N)=O)C(=O)N[C@@H](Cc1c[nH]c2ccccc12)C(=O)N[C@@H](CC(C)C)C(=O)N[C@H](C(=O)N[C@@H](CCCNC(=N)N)C(=O)N[C@@H](CCC(N)=O)C(=O)N[C@@H](CCCNC(=N)N)C(=O)N[C@@H](Cc1ccc(O)cc1)C(N)=O)[C@@H](C)O
notes: also called Compound 56; 56
Ratio of Y5/Y2 EC50 values [3]: 193
Ratio of Y4/Y2 EC50 values [4]: 3060
Ki [8]: 4410 nM
Ki [5]: 279 nM
Ki [6]: 1.4 nM
Y2 EC50, Actone functional potency assay [7]: 0.54 nM
